This is an account of results in the supplement of paper PMC7877785.

± gives the uncertainty stated by the source.

This data set in a line: self-splicing fitness, log relative to wild type (ln ratio); higher = more splicing; Tetrahymena group I intron in knt gene, E. coli kanamycin selection, DiMSum; sequences stand for … in CUCUCU…GGAGGGAAAAGUUAUCAGGCAUGCACCUGGUAGCUAGUCUUUAAACCAAUAGAUUGCAUCGGUUUAAAAGGCAAGACCGUCAAAUUGCGGGAAAGGGGUCAACAGCCGUUCAGUACCAAGUCUCAGGGGAAACUUUGAGAUGGCCUUGCAAAGGGUAUGGUAAUAAGCUGACGGACAUGGUCCUAACCACGCAGCCAAGUCCUAAGUCAACAGAUCUUCUGUUGAUAUGGAUGCAGUUCACAGACUAAAUGUCGGUCGGGGAAGAUGUAUUCUUCUCAUAAGAUAUAGUCGGACCUCUCCUUAAUGGGAGCUAGCGGAUGAAGUGAUGCAACACUGGAGCCGCUGGGAACUAAUUUGUAUGCGAAAGUAUAUUGAUUAGUUUUGGAGUACUCGUGGUCG
Put shortly:
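Six replicate transformations of E. coli BL21(DE3) with a pET-22b(+) library were grown overnight at 37°C or 30°C. The library randomised all eight P1ex-region intron nucleotides, the intron lying in the knt kanamycin-resistance gene, and plates were LB agar with or without 25 μg/mL kanamycin plus 100 μg/mL carbenicillin, 50 μM IPTG and 0.2% rhamnose. Pooled colonies were amplicon-sequenced on an Illumina HiSeq 2500, and fitness is the DiMSum error-weighted combination of wild-type-normalised replicate fold changes, kanamycin versus none.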

In the case of GAAGAGCAAUAUUACGAAUU, the “self-splicing fitness (ln)” value runs as follows: (30 °C) -3.24 ± 0.18; (37 °C) -2.21 ± 0.23.

Turning to ACGCAGCAAUAUUACGGGAU, the “self-splicing fitness (ln)” value (30 °C) is -2.32 ± 0.079 and the “self-splicing fitness (ln)” value (37 °C) was -1.41 ± 0.089.

As for UAAGAGCAAUAUUACGCACA, the “self-splicing fitness (ln)” value (37 °C) is -1.42 ± 0.33.

GUGCAGCAAUAUUACGUUUA: the “self-splicing fitness (ln)” value reads like this: (30 °C) -0.737 ± 0.11; (37 °C) -0.75 ± 0.12.

In the case of CCAGAGCAAUAUUACGUUAA, the “self-splicing fitness (ln)” value (30 °C) is -4.07 ± 0.37 and the “self-splicing fitness (ln)” value (37 °C) is -2.91 ± 0.29.

Take UCGUAGCAAUAUUACGGUCG: the “self-splicing fitness (ln)” value is, setting by setting: (30 °C) -1.69 ± 0.12; (37 °C) 0.265 ± 0.13.

In the case of UGGAAGCAAUAUUACGUUUU, the “self-splicing fitness (ln)” value runs as follows: (30 °C) -3.63 ± 0.33; (37 °C) -2.43 ± 0.27.

As to CUCUAGCAAUAUUACGUAAU, the “self-splicing fitness (ln)” value (30 °C) was -3.59 ± 0.26 and the “self-splicing fitness (ln)” value (37 °C) was -3.77 ± 0.46.

UACUAGCAAUAUUACGAGAA: the “self-splicing fitness (ln)” value was -1.6 ± 0.33 (30 °C) and -0.769 ± 0.22 (37 °C).

For the sequence GGCGAGCAAUAUUACGGUGU, the “self-splicing fitness (ln)” value (30 °C) is -2.02 ± 0.25 and the “self-splicing fitness (ln)” value (37 °C) was -1.55 ± 0.17.

In the case of AUGAAGCAAUAUUACGAGAA, the “self-splicing fitness (ln)” value by setting is: (30 °C) -3.53 ± 0.27; (37 °C) -1.07 ± 0.16.

With GUAAAGCAAUAUUACGCCGA, the “self-splicing fitness (ln)” value reads like this: (30 °C) -0.859 ± 0.11; (37 °C) -0.839 ± 0.14.

In the case of GAAUAGCAAUAUUACGUUCU, the “self-splicing fitness (ln)” value (30 °C) is -3.24 ± 0.26 and the “self-splicing fitness (ln)” value (37 °C) was -1.82 ± 0.27.

Consider UUGCAGCAAUAUUACGUUAC, for which the “self-splicing fitness (ln)” value (30 °C) was -2.77 ± 0.15 and the “self-splicing fitness (ln)” value (37 °C) was -2.18 ± 0.17.

With CCUAAGCAAUAUUACGGGCA, the “self-splicing fitness (ln)” value is, setting by setting: (30 °C) -3.62 ± 0.25; (37 °C) -2.85 ± 0.24.

In the case of CACAAGCAAUAUUACGUGAG, the “self-splicing fitness (ln)” value (30 °C) was -4.48 ± 0.15 and the “self-splicing fitness (ln)” value (37 °C) is -3.21 ± 0.19.

CUCGAGCAAUAUUACGUGGC: where the note is “37 °C”, the “self-splicing fitness (ln)” value is -0.934 ± 0.32.

AUCAAGCAAUAUUACGGAUA: the “self-splicing fitness (ln)” value was -2.42 ± 0.16 (30 °C) and -1.83 ± 0.15 (37 °C).

For ACCUAGCAAUAUUACGUCUA, the “self-splicing fitness (ln)” value runs as follows: (30 °C) -2.44 ± 0.21; (37 °C) -2.04 ± 0.25.

On to GAAGAGCAAUAUUACGUGCU, for which, under “30 °C”, the “self-splicing fitness (ln)” value was -3.52 ± 0.22.

On to GCAUAGCAAUAUUACGACGU, for which the “self-splicing fitness (ln)” value (30 °C) is -0.0199 ± 0.12 and the “self-splicing fitness (ln)” value (37 °C) was found to be 0.152 ± 0.12.

Regarding AAUGAGCAAUAUUACGGUUG, the “self-splicing fitness (ln)” value by setting is: (30 °C) -2.99 ± 0.13; (37 °C) -2.81 ± 0.19.

As to CAGAAGCAAUAUUACGGAUU, the “self-splicing fitness (ln)” value reads like this: (30 °C) -3.13 ± 0.12; (37 °C) -2.47 ± 0.14.

As to AACUAGCAAUAUUACGAUGC, the “self-splicing fitness (ln)” value is, setting by setting: (30 °C) -1.25 ± 0.12; (37 °C) -2.06 ± 0.25.

Regarding AUACAGCAAUAUUACGCGUC, the “self-splicing fitness (ln)” value (30 °C) is -3.72 ± 0.14 and the “self-splicing fitness (ln)” value (37 °C) is -2.6 ± 0.13.

Regarding ACUGAGCAAUAUUACGCACC, the “self-splicing fitness (ln)” value reads like this: (30 °C) -2 ± 0.4; (37 °C) -2.15 ± 0.42.

Consider GGCCAGCAAUAUUACGCGCG, for which the “self-splicing fitness (ln)” value runs as follows: (30 °C) -0.959 ± 0.089; (37 °C) -0.284 ± 0.12.

Consider GAGAAGCAAUAUUACGACGU, for which the “self-splicing fitness (ln)” value was -0.944 ± 0.22 (30 °C) and 0.108 ± 0.19 (37 °C).

In the case of CUCAAGCAAUAUUACGCUUU, the “self-splicing fitness (ln)” value was -4.09 ± 0.37 (30 °C) and -3.52 ± 0.31 (37 °C).

Take ACAAAGCAAUAUUACGGUCA: the “self-splicing fitness (ln)” value runs as follows: (30 °C) -0.595 ± 0.069; (37 °C) -0.472 ± 0.07.

For the sequence AUUUAGCAAUAUUACGAGUU, the “self-splicing fitness (ln)” value runs as follows: (30 °C) -2.58 ± 0.3; (37 °C) -0.85 ± 0.23.

AAUGAGCAAUAUUACGUCUU: the “self-splicing fitness (ln)” value is 0.00922 ± 0.083 (30 °C) and -0.0903 ± 0.096 (37 °C).

CGUUAGCAAUAUUACGGGGC: the “self-splicing fitness (ln)” value is, setting by setting: (30 °C) -2.57 ± 0.15; (37 °C) -3.12 ± 0.28.

Consider GUGGAGCAAUAUUACGGAGC, for which the “self-splicing fitness (ln)” value was -2.43 ± 0.2 (30 °C) and -0.177 ± 0.25 (37 °C).

As for CUAAAGCAAUAUUACGUUUU, the “self-splicing fitness (ln)” value runs as follows: (30 °C) -4.6 ± 0.26; (37 °C) -2.58 ± 0.21.

Take GAUCAGCAAUAUUACGUAUG: the “self-splicing fitness (ln)” value by setting is: (30 °C) -0.935 ± 0.084; (37 °C) -0.276 ± 0.097.

Turning to AAGCAGCAAUAUUACGGUGC, the “self-splicing fitness (ln)” value (30 °C) is -3.29 ± 0.15 and the “self-splicing fitness (ln)” value (37 °C) is -1.61 ± 0.14.

As for UAUUAGCAAUAUUACGACCG, the “self-splicing fitness (ln)” value is 0.0866 ± 0.13 (30 °C) and -0.0729 ± 0.16 (37 °C).

For the sequence AGCAAGCAAUAUUACGAAGG, the “self-splicing fitness (ln)” value (30 °C) is -4.66 ± 0.36 and the “self-splicing fitness (ln)” value (37 °C) is -1.54 ± 0.22.
